Results reported in patent US20220332804A1 (CSL INNOVATION, published 2022).

Columns and labels:
Assay in all cases: SPR, KD relative to WT C2;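 also: biacore SPR at 37 °C, anti-C2 mAbs captured on anti-human IgG chips with alanine or serine point mutants of C2 as analyte, KD from 1:1 fit compared with wild-type C2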
human C2 I438A = biological target: T1, human C2 I438A (human, UniProt P06681 21-752)
T1 sequence: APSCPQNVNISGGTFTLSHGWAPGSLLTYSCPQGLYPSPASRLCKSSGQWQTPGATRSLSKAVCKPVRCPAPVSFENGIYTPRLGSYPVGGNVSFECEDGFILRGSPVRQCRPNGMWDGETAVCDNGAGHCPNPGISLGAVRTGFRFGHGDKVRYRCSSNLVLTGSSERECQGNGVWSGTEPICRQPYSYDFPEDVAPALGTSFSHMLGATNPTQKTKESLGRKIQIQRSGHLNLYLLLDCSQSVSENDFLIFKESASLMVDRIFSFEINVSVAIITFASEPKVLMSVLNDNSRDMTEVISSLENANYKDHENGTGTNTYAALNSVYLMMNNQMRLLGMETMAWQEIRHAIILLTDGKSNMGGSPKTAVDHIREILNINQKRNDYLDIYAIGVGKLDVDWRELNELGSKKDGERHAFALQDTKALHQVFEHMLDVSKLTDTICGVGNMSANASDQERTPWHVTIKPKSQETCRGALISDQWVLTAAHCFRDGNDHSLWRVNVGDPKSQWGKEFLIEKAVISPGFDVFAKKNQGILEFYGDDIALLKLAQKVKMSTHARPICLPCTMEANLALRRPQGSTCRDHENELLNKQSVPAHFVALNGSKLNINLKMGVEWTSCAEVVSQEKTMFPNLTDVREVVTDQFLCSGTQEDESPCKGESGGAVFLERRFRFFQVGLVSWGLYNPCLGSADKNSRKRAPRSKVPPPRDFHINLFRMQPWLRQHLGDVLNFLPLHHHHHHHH

human C2 W420A = biological target: T2, human C2 W420A (human, UniProt P06681 21-752)
T2 sequence: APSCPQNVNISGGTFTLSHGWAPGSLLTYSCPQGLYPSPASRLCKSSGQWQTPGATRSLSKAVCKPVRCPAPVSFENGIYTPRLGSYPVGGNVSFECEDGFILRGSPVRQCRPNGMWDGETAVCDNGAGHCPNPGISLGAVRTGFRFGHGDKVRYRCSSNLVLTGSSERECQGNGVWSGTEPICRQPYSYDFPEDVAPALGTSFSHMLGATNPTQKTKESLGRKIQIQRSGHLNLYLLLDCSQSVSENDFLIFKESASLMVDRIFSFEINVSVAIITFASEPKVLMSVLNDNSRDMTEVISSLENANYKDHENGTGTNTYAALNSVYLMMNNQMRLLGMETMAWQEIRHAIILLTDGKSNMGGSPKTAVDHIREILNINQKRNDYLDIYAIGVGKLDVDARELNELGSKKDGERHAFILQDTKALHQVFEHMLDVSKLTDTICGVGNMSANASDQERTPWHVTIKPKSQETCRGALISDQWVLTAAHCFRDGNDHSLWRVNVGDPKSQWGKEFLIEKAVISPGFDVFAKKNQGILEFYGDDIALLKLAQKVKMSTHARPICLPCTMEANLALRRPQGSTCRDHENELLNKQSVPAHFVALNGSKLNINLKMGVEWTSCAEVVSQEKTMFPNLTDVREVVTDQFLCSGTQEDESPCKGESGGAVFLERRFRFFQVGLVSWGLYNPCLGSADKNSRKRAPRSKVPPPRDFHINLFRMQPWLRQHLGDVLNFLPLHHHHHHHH

human C2 E433A = biological target: T3, human C2 E433A (human, UniProt P06681 21-752)
T3 sequence: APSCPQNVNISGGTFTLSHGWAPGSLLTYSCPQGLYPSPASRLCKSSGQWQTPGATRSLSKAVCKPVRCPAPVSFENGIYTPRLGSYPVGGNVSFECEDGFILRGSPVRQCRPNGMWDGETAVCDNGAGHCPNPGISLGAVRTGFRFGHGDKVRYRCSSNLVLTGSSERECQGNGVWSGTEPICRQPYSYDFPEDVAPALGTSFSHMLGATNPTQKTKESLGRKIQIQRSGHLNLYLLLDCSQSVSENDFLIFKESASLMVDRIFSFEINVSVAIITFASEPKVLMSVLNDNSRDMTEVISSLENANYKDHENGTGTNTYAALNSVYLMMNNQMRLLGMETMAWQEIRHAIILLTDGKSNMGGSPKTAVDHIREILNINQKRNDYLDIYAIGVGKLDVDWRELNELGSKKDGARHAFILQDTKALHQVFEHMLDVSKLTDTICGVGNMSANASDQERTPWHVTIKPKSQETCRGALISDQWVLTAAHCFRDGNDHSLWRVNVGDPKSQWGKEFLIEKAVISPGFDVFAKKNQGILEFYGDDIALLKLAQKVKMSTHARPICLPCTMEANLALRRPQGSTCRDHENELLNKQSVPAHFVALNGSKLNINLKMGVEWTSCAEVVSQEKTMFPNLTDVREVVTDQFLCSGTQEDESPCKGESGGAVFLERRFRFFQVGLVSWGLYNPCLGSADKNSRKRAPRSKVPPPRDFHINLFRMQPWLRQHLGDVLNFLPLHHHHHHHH

human C2 V455A = biological target: T4, human C2 V455A (human, UniProt P06681 21-752)
T4 sequence: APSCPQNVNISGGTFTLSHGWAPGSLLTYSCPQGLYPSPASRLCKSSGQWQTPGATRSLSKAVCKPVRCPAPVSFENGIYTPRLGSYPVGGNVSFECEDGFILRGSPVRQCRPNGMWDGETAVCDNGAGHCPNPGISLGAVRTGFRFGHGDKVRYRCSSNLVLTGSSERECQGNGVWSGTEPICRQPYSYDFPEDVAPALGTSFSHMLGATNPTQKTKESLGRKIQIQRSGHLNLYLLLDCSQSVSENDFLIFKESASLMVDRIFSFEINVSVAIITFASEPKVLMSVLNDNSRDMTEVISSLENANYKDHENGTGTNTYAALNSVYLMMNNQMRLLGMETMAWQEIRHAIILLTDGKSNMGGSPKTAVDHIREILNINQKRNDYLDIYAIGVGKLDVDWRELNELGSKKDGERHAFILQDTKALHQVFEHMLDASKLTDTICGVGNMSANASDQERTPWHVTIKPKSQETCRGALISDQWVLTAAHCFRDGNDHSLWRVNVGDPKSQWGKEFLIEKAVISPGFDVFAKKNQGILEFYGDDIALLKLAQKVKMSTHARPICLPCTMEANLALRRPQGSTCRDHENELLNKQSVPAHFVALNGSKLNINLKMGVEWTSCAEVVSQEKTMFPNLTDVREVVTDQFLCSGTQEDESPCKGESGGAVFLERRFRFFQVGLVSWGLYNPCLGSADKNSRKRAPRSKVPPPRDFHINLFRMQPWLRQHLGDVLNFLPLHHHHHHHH

B1: RF16-242 (antibody, human IgG4 S228P, lambda, V domains shown)
VH: EVQLLQSGAEVKKPGESLKISCKGSGYSFTSYWIGWVRQMPGKGLEWMGIIYPGDSDTRYSPSFQGQVTISADKSISTAYLQWSSLKASDTAMYYCARRGHYGDYFDYWGQGTLVTVSS
VL: SYELTQPPSVSVSPGQTARITCSGDALPKKYAYWYHQKSGQAPVLVIYEDRRRPSEIPERFSGSSSGTMATLTITGAQVEDEGVYFCYSRDRAGNQRVFGGGTQLTVLG
notes: pH-dependent anti-C2 antibody from a phage display library
How did the Fold diff (human C2 I438A) turn out when B1 was run?
The Fold diff was 1 fold.

What about the Fold diff (human C2 W420A) of the same binder?
Its Fold diff is 2 fold.

What about the Fold diff (human C2 E433A) of the same binder?
Its Fold diff is 0 fold.

And the Fold diff (human C2 V455A)?
The Fold diff was 1 fold.
